Residue numbers refer to the chain shown, from its start.
Assays:
Test in all cases: yeast two-hybrid
GIP130c = target: T1, GIP130c (human, UniProt Q4L180 1-1128)
T1 construct: Full length; tested as GAL4 domain fusion in yeast two-hybrid
T1 sequence: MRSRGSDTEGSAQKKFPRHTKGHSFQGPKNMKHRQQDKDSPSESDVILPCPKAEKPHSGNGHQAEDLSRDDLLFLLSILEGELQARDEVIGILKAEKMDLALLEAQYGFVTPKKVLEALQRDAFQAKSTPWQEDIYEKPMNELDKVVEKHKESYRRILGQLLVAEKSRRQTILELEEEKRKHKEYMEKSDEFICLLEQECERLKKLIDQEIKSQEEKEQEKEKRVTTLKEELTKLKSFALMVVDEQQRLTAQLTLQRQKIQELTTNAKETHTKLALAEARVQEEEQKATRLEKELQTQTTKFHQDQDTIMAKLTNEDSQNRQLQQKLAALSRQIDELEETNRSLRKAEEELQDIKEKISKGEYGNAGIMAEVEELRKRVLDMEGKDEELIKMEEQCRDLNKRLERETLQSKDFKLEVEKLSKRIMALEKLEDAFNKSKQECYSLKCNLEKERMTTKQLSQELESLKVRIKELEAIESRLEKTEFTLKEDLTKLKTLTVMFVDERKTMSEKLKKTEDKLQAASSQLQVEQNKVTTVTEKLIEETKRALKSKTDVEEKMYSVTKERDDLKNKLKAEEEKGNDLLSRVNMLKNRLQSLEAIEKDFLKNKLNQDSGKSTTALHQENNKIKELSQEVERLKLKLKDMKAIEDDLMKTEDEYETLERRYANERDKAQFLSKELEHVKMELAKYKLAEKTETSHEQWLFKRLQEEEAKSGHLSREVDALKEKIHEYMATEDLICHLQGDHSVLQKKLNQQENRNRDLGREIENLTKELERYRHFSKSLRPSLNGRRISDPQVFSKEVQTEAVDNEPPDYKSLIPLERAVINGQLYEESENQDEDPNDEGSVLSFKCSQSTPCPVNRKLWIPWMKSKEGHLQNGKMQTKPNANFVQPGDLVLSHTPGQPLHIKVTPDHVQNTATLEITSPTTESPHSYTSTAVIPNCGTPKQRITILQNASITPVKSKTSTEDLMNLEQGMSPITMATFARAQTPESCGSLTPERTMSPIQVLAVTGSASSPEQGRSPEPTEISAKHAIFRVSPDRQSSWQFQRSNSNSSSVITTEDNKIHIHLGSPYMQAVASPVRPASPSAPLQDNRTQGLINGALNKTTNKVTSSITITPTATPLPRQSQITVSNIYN

GIP130b = target: T2, GIP130b (human, UniProt Q4L180 1-1128)
T2 construct: Full length; tested as GAL4 domain fusion in yeast two-hybrid
T2 sequence: T1 sequence with R168H

yeast two-hybrid = target: the molecule itself
GIP130a = target: T3, GIP130a (human, UniProt Q4L180 1-1135)
T3 construct: Full length; tested as GAL4 domain fusion in yeast two-hybrid
T3 sequence: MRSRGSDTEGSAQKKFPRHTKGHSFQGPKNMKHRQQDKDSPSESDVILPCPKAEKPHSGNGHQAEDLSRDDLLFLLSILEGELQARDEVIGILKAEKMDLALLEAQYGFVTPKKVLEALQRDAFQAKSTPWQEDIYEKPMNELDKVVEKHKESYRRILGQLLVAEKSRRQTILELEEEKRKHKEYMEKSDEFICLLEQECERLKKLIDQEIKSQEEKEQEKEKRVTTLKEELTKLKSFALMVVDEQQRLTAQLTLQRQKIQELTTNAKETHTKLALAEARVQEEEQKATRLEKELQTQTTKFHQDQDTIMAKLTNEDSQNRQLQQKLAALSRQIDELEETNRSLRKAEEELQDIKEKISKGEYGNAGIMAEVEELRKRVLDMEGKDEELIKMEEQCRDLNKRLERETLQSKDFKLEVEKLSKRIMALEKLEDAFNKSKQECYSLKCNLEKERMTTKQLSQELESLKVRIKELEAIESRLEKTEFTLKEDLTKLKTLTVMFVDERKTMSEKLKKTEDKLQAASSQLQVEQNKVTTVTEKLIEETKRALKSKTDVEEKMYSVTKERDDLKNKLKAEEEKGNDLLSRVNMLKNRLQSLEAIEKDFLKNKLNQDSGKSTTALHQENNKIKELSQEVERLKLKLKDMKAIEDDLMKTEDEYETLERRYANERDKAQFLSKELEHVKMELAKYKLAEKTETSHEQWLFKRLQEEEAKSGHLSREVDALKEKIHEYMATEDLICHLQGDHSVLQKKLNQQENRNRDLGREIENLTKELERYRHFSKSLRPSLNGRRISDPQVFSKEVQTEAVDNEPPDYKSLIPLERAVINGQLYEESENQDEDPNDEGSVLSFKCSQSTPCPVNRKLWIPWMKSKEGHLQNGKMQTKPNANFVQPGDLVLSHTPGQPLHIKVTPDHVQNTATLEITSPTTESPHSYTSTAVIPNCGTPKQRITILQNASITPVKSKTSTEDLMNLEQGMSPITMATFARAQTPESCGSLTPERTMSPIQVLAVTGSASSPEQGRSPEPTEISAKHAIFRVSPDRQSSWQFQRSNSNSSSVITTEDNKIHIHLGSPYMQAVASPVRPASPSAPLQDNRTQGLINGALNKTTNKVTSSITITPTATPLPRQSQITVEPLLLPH

binding result (GIP130c): binds
binding result (GIP130b): binds
binding result (GIP130a): binds
B1: GIP90 (GPBP interacting protein 90 kDa) (other)
chain: MRSRGSDTEGSAQKKFPRHTKGHSFQGPKNMKHRQQDKDSPSESDVILPCPKAEKPHSGNGHQAEDLSRDDLLFLLSILEGELQARDEVIGILKAEKMDLALLEAQYGFVTPKKVLEALQRDAFQAKSTPWQEDIYEKPMNELDKVVEKHKESYRRILGQLLVAEKSRRQTILELEEEKRKHKEYMEKSDEFICLLEQECERLKKLIDQEIKSQEEKEQEKEKRVTTLKEELTKLKSFALMVVDEQQRLTAQLTLQRQKIQELTTNAKETHTKLALAEARVQEEEQKATRLEKELQTQTTKFHQDQDTIMAKLTNEDSQNRQLQQKLAALSRQIDELEETNRSLRKAEEELQDIKEKISKGEYGNAGIMAEVEELRKRVLDMEGKDEELIKMEEQCRDLNKRLERETLQSKDFKLEVEKLSKRIMALEKLEDAFNKSKQECYSLKCNLEKERMTTKQLSQELESLKVRIKELEAIESRLEKTEFTLKEDLTKLKTLTVMFVDERKTMSEKLKKTEDKLQAASSQLQVEQNKVTTVTEKLIEETKRALKSKTDVEEKMYSVTKERDDLKNKLKAEEEKGNDLLSRVNMLKNRLQSLEAIEKDFLKNKLNQDSGKSTTALHQENNKIKELSQEVERLKLKLKDMKAIEDDLMKTEDEYETLERRYANERDKAQFLSKELEHVKMELAKYKLAEKTETSHEQWLFKRLQEEEAKSGHLSREVDALKEKIHEYMATEDLICHLQGDHSVLQKKTKSTRKQEQRFRKRD
notes: Full length; tested as GAL4 domain fusion in yeast two-hybrid/three-hybrid; fusion parts are not written as pieces
binding result (yeast two-hybrid): binds
